Changes are numbered by the printed parent chain.

Assay [1] addresses SARS-CoV preparation (Frankfurt 1 strain). In words: phage ELISA on coated SARS-CoV preparation, plate 2 (no phage antibody 0.211). Background: In an ELISA, binding on a coated surface is turned into a signal by an enzyme label.
Assay [2] shares this target. In words: phage ELISA on coated SARS-CoV preparation, plate 4 (no phage antibody 0.051).
Assay [3] shares this target. In words: phage ELISA on coated SARS-CoV preparation, plate 3 (no phage antibody 0.054).
The target in assay [4] is SARS-CoV strain Frankfurt 1 (infectious virus). Kind of assay: cell-based or functional assay.
The target in assay [5] is SARS-CoV strain Frankfurt 2 (infectious virus). In words: cell-based or functional assay.

B1: SC03-025 (scFv)
scFv: AMAEVQLVESGGGLVQPGGSLRLSCAASGFTFSSYAMHWVRQAPGKGLEYVSGISSNGGSTYYANSVKGRFTISRDNSKNTLYLQMGSLRAEDMAVYYCARTTNRAFDIWGQGTMVTVSSGTGGSGGTGSGTGGSTDIQLTQSPDSLAVSLGERATINCKSSQSVLYSSNNKNYLAWYQQKPGQPPKLLIYWASIRESGVPDRFSGSGSGTDFTLTISSLQAEDVAVYYCQQYYNIPYAFGQGTKLEIKRAA
For the molecule B1, the OD492 nm in assay [1] was 1.64 OD492 nm.

B2: SC03-044 (scFv)
scFv: B1 scFv with S10T, L140M, I195T, S205R, V225L, N235S, I236T, A239S
In the case of B2, the OD492 nm in assay [2] was found to be 0.518 OD492 nm.

B3: SC03-043 (scFv)
scFv: B1 scFv with E4Q, E9Q, S168R, I195T, P201S, D202E, N235S, I236T, A239S
B3 returned an OD492 nm in assay [3] of 1.27 OD492 nm.

B4: SC03-057 (scFv)
scFv: AMAQVQLVQSGAEVKKPGSSVKVSCKASGGTFSRYAISWVRQAPGQGLEWMGRINPILNLTNYAQKFQGRVTITADKSTSTAYMEMSSLRSEDTAIYYCASPDIVVAGHASPPHYTMDVWGQGTTVTVSSGTGGSGGTGSGTGGSTDIQMTQSPSSLSASVGDRVTITCRASQGIRNDLGWYQQKPGKAPNLLIYQASALQSGVPSRFSGSESGAEFTLTISSLHPDDFATYYCQQYHDFPITFGQGTRLEIKRAA
Take B4: the OD492 nm in assay [3] is 1.19 OD492 nm.

B5: SC03-046 (scFv)
scFv: AMAEVQLVQSGGGLVQPGGSLRLSCAASGFTFSSYAMHWVRQAPGKGLEYVSGISSNGGSTYYANSVKGRFTISRDNSKNTLYLQMGSLRAEDMAVYYCARTTNRAFDIWGQGTMVTVSSGTGGSGGTGSGTGGSTDVVMTQSPDSLAVSLGERATINCKSSQSVLYSSNNKNYLAWYQQKPGQPPKLLIYWASTRESGVPDRFSGSGSGTDFSLTISSLQAEDVAVYYCQQYYSPPYTFGPGTKVEIKRAA
B5 registered an OD492 nm in assay [3] of 1.9 OD492 nm.

B6: SC03-040 (scFv)
scFv: B1 scFv with E4Q, E9Q, L140M, K160R, I195T, N235S, I236S, A239S
In assay [2], B6 yielded an OD492 nm of 0.616 OD492 nm.

B7: SC03-054 (scFv)
scFv: B1 scFv with E9Q, L14V, G19R, I195T, S207G, N235S, I236T, A239S, L246V
Molecule B7 registered an OD492 nm in assay [2] of 0.428 OD492 nm.

B8: SC03-026 (scFv)
scFv: B5 scFv with E4Q, V138I, V139Q, V165I, N171S, A176G, S214T, P236T, T239S, P242Q
In assay [1], B8 gave an OD492 nm of 1.07 OD492 nm.

B9: SC03-055 (scFv)
scFv: AMAQVQLQQWGAGLLKPSETLSLTCAVYGGSFSGFYWSWIRQPPGKGLEWIGEINHSGSTNYNPSLKSRVTISADTSKNQFSLKLSSVTAADTAVYYCARRVEVVEYQLLRPRYKSWFDPWGQGTLVTVSSGTGGSGGTGSGTGGSTQSVLTQPPSVSGAPGQRVSISCSGSGANGGTDPVSWYQKFPGTAPHLLIYDNNKRPSGIPDRFSGSKSGASATLDITGLQTGDEADYYCGAWDPSLSGYVFGTGTQLTVLSAA
With B9, in assay [3], the OD492 nm amounted to 0.608 OD492 nm.

B10: SC03-033 (scFv)
scFv: AMAQVQLVQSGTEVKKPGESLKISCKGSGYGFITYWIGWVRQMPGKGLEWMGIIYPGDSETRYSPSFQGQVTISADKSINTAYLQWSSLKASDTAIYYCAGGSGISTPMDVWGQGTTVTVSSGTGGSGGTGSGTGGSTDVVMTQSPDSLAVSLGERATINCKTSHNIFSRSNNKDYLAWYQQKPGQPPRLLIYWASTRASGVPERFSGSGSGTDFSLTISSLQAEDVAVYYCQQYYSSPMYSFGQGTKVEIKRAA
The molecule B10 gave an OD492 nm in assay [2] of 0.288 OD492 nm.

B11: SC03-039 (scFv)
scFv: AMAEVQLVESGGGLVQPGGSLRLSCAASGFTFSSYAMSWVRQAPGKGLEWVSVIYSGGTSTYYADSVKGRFTISRDNSKNTLYLQMNSLRAEDTAVYFCAKGSKWNDVGGGDYWGQGTLVTVSSGTGGSGGTGSGTGGSTNFMLTQPHSVSESPGKTVTISCAGSSGSIASNYVQWYQQRPGSAPTTVIYEDNQRPSGVPDRFSGSIDSSSNSASLTISGLKTEDEADYYCQSYDGYLWIFGGGTKLTVLGAA
B11: in assay [3], the OD492 nm was 0.851 OD492 nm.

B12: SC03-024 (scFv)
scFv: AMAQVQLVESGSELKIPGASVKVSCKATGYTFTRYSLNWVRQAPGQGLEWVGWINTQTGNSNYGQAFSGRFVFSLDTSVSTAYLQISSLQAEDTATYYCARKSAGSNAFDIWGQGTMVTVSSGTGGSGGTGSGTGGSTQSVVTQPPSVSAAPGQKATISCSGSSSNIGNNYVSWYQQLPGTAPKLLIYDNNKRPSGIPNRFSGSKSGTSATLGITGLQTGDEADYYCGTWDSSLSAYVFGTGTKVTVLGAA
Take B12: the OD492 nm in assay [1] was 0.235 OD492 nm.

B13: SC03-023 (scFv)
scFv: AMAQVQLQQWGAGLLKPSETLSLTCAVYGGSFSGFYWSWIRQPPGKGLEWIGEINHSGSTNYNPSLKSRVTISVDTSKNQFSLKLSSVTAADTAVYYCARRVEVVEYQLLRPRYKSWFDPWGQGTLVTVSSGTGGSGGTGSGTGGSTQSALTQPRSVSGSPGQSVTISCTGSSSTVGGYNYVSWYQQHPGKAPKLMIYDVSKRPSGVSNRFSGSKSGNTASLTISGLQAEDEADYYCSSYTSSSTYVFGTGTKVTVLGAA
Molecule B13 gave an OD492 nm in assay [1] of 1.31 OD492 nm.

B14: SC03-031 (scFv)
scFv: AMAQVQLVQSGADVKKPGSSVKVSCEASGGTFSSYAISWVRQAPGQGLEWMGRIIPILGITNYAQKFQGRVTITADKSTGTGNMELSSLRSEDTAVYYCARESGGGYDNHFDYWGQGTLVTVSSGTGGSGGTGSGTGGSTQSVLTQPPSASGTPGQRVTISCSGGSSNIGSNTVNWYQQLPGTAPKLVIYANNQRPSGVPDRFSASKSGTSASLAISGLQSEDEADYYCAAWDDSLTGGVFGGGTQLTVLSAA
Turning to B14, the OD492 nm in assay [2] was determined as 0.635 OD492 nm.

B15: SC03-051 (scFv)
scFv: AMAQVQLVQSGTEVKKPGESLKISCKGSGYGFITYWIGWVRQMPGKGLEWMGIIYPGDSETRYSPSFQGQVTISADKSINTAYLQWSSLKASDTAIYYCAGGSGISTPMDVWGQGTTVTVSSGTGGSGGTGSGTGGSTDIQMTQSPDSLAVSLGERATINCKSGQSILYSSNDKNYLAWYQQKPGQPPKLLIYWASTRESGVPDRFSGSGSGTDFTLTISSLQAEDVAVYYCQQYYSTPYTFGQGTKVEIKRAA
Molecule B15 yielded an OD492 nm in assay [3] of 0.602 OD492 nm.

B16: SC03-020 (scFv)
scFv: B15 scFv with Q4E, T12S, G164S, S166K, Y169H, D173N, Y240P, T241V, Q244G
In assay [1], B16 had an OD492 nm of 0.671 OD492 nm.

B17: SC03-021 (scFv)
scFv: B15 scFv with I140V, Q141V, G164S, I167V, Y169H, D173N, E199Q, Y240P
Turning to B17, the OD492 nm in assay [1] is 0.215 OD492 nm.

B18: SC03-034 (scFv)
scFv: AMAEVQLVQSGAEVKKPGESLKISCKGSGYGFITYWIGWVRQMPGKGLEWMGIIYPGDSETRYSPSFQGQVTISADKSINTAYLQWSSLKASDTAIYYCAGGSGISTPMDVWGQGTTVTVSSGTGGSGGTGSGTGGSTDVVMTQSPDSLAVSLGERATINCKSSQSILNRSNNKNYLAWYQQKPGQPPKLLIYWASTRESGVPDRFSGSGSGTDFNLTISSLQAEDVAVYYCQQYNNWPLTFGGGTKVDIKRAA
In assay [3], B18 came in with an OD492 nm of 0.802 OD492 nm.

B19: SC03-036 (scFv)
scFv: AMAEVQLVQSGTEVKKPGESLKISCKGSGYGFITYWIGWVRQMPGKGLEWMGIIYPGDSETRYSPSFQGQVTISADKSINTAYLQWSSLKASDTAIYYCAGGSGISTPMDVWGQGTTVTVSSGTGGSGGTGSGTGGSTDIQMTQSPDSLAVSLGERATINCKSSQSVLHSPNNKNYLAWYQQKPGQPPKLLIYWASTRESGVPDRFSGSGSGTDFTLTISSLQAEDVAVYYCQQYYSTNSFGQGTKLEIKRAA
B19 showed an OD492 nm in assay [3] of 0.24 OD492 nm.

B20: SC03-037 (scFv)
scFv: AMAKVQLVQSGGGLIQPGGSLRLSCAASGFTVSSNYMSWVRQAPGKGLEWVSIVFSGGSTYYADSVKGRFTISRDNSKNTLYLQMNSLRAEDTAVYYCARDAHRGFGMDVWGQGTTVTVSSGTGGSGGTGSGTGGSTSSELTQDPAVSVALGQTVRITCQGDSLRSYYASWYQQKPGQAPVLVIYGKNNRPSGIPDRFSGSSSGNTASLTITGAQAEDEADYYCNGRDSSGNHWVFGGGTKLTVLGAA
In assay [2], B20 registered an OD492 nm of 0.287 OD492 nm.

B21: SC03-038 (scFv)
scFv: B20 scFv with K4E, N205D, G226S
In assay [2], B21 yielded an OD492 nm of 0.314 OD492 nm.

B22: bivalent scFv pyBi03-006C02 (scFv)
scFv: SMAEVQLVESGGGLVQPGGSLRLSCAASGFTFSGYPMHWVRQAPGKGLEWVAVISYDGSNKYYADSVKGRFTISRDNSKNTLYLQMNSLRAEDTAVYYCAKDGSPRTPSFDYWGQGTLVTVLEGTGGSGGTGSGTGTSELDIQMTQSPHSLSASVGDRVTITCRASQGISNYLAWYQQKPGKVPKLLIYAASTLQSGVPSRFSGSGSGTDFTLTISSLQPEDVGVYYCQQRFRTPVTFGQGTKLEIKRAAA
In turn, B22 gave a Neutralization titer for Frankfurt 1 strain (dilution factor) in assay [4] of less than 20. In addition, in assay [5], the Neutralization titer for Frankfurt 2 strain (dilution factor) was less than 20.
